Results published in PMC3092513 (Enzyme Research, 2011).

B1: EcoDHQS (Escherichia coli K-12) (protein)
chain: MERIVVTLGERSYPITIASGLFNEPASFLPLKSGEQVMLVTNETLAPLYLDKVRGVLEQAGVNVDSVILPDGEQYKSLAVLDTVFTALLQKPHGRDTTLVALGGGVVGDLTGFAAASYQRGVRFIQVPTTLLSQVDSSVGGKTAVNHPLGKNMIGAFYQPASVVVDLDCLKTLPPRELASGLAEVIKYGIILDGAFFNWLEENLDALLRLDGPAMAYCIRRCCELKAEVVAADERETGLRALLNLGHTFGHAIEAEMGYGNWLHGEAVAAGMVMAARTSERLGQFSSAETQRIITLLKRAGLPVNGPREMSAQAYLPHMLRDKKVLAGEMRLILPLAIGKSEVRSGVSHELVLNAIADCQSA
notes: recombinant, overexpressed in E. coli RB791 from plasmid of J. R. Coggins; ammonium sulfate and anion exchange; no tag mentioned
B2: Pyrococcus furiosus dehydroquinate synthase (enzyme, UniProt Q8U0A8 1-335, looked up)
chain: MEGIIFGDLSTLPDLLSSLSPYKVVVLTNTTLKELWLEEVLTWLKEFKPQTIVVPDGEKYKDLDTVRYIWEKLLEMGFTRRSLLIGLGGGVITDIAGFVASTYMRGTYLGLVPTTLLAQVDAAIGGKTGINFYGKNIIGTFYLPKFVLICRDFLKTLPMVEILNGLAEVVKYGILDKEVYNAIKTMNSPREIVEREDIIKKSVAVKLRIVEEDLKENGKRRVLNLGHTVGHAIEKISDYKIKHGFAVSMGLVVEAKIGEILYGFDSGKVVEILTKFGLPVKIPFDPYTTLQAMKIDKKAWYGKIVIVVPVEIGKANIEEVDEKIILQALEEAKNA

Key:
[1] = substrate: O=C(O)C(=O)C[C@@H](O)[C@H](O)[C@H](O)COP(=O)(O)O; assay: purified protein; assay type: biochemical, Escherichia coli; conditions: 25 °C, pH 6.8
[2] = molecular target: the molecule itself; assay: SEC; Superdex S200 HR 10/300; 10 mM BTP, 10 μM EDTA, 50 mM KCl, pH 6.8; partially purified protein at ≤10 mg/mL; mass estimated from a standard curve of five proteins; dimer of the enzyme
[3] = substrate: O=C(O)C(=O)C[C@@H](O)[C@H](O)[C@H](O)COP(=O)(O)O; assay: purified protein; assay type: biochemical, Pyrococcus furiosus; conditions: 60 °C, pH 6.8, 50 mM BTP, 10 μM EDTA, 100 μM ZnCl2, 29 μM NAD+, 56 nM enzyme

Protein | Km [1] [µM] | kcat [1] [s⁻¹] | kcat/Km [1] [M⁻¹ s⁻¹] | stoichiometry N [2] | Km [3] [µM] | kcat [3] [s⁻¹] | kcat/Km [3] [M⁻¹ s⁻¹]
B1 | 6.3 ± 0.2 | 16 ± 0.2 | 2.5e+06 |  |  |  | 
B2 |  |  |  | 2 | 3.7 ± 0.2 | 3 ± 0.1 | 800000
